These results are taken from US20120040938A1, “GLUCOCORTICOID RECEPTOR ALLELES AND USES THEREOF” (SHRINERS HOSPITAL FOR CHILDREN, priority 2009, published 2012).

The test deals with GRE (glucocorticoid response element)-Luciferase reporter. Description: GRE-luciferase reporter assay of transactivation potential of reconstructed GR alleles co-transfected into HEK 293 cells. The class given is cell-based, human. The text has this: An exemplary assay for determining the transactivation potential of a GR polypeptide is described below. The GR nucleic acid sequence encoding the GR polypeptide of interest can be cloned into a first vector (e.g., pcDNA4, Invitrogen, Carlsbad, Calif.). A second vector can be constructed to contain a reporter gene, e.g., the luciferase gene, under the control of a GRE. These two vectors can be co-transfected into a cell, e.g., a human embryonic kidney cell (HEK 293). Skilled practitioners will recognize that a number of cell types can be used to test whether a GR polypeptide is functional. The cell will then express the GR polypeptide encoded by the GR nucleic acid sequence on the first vector. […] The product of the reporter gene, e.g., luciferase, can then be detected and quantified using conventional methods. For example, when a luciferin substrate is added, luciferase will produce luminescence that can be detected and quantified. […]
The reconstructed GR allele expression plasmids described above were co-transfected with a GRE (glucocorticoid response element)-Luciferase reporter plasmid (Stratagene) using Fugene HD/6 (Roche) into HEK (human embryonic kidney) 293 cells, grown in Dulbecco's Modified Eagle Medium with 10% fetal bovine serum and 1% Penicillin/Streptomycin (Invitrogen.). […] The differences in luminescence were graphed and analyzed.

B1: allele 66-63: Full-length human GR with substitutions N72D, V321A, R460K, F749G (protein, UniProt P04150 1-777, looked up, variant N72D V321A R460K F749G)
Glucocorticoid receptor: MDSKESLTPGREENPSSVLAQERGDVMDFYKTLRGGATVKVSASSPSLAVASQSDSKQRRLLVDFPKGSVSDAQQPDLSKAVSLSMGLYMGETETKVMGNDLGFPQQGQISLSSGETDLKLLEESIANLNRSTSVPENPKSSASTAVSAAPTEKEFPKTHSDVSSEQQHLKGQTGTNGGNVKLYTTDQSTFDILQDLEFSSGSPGKETNESPWRSDLLIDENCLLSPLAGEDDSFLLEGNSNEDCKPLILPDTKPKIKDNGDLVLSSPSNVTLPQVKTEKEDFIELCTPGVIKQEKLGTVYCQASFPGANIIGNKMSAISAHGVSTSGGQMYHYDMNTASLSQQQDQKPIFNVIPPIPVGSENWNRCQGSGDDNLTSLGTLNFPGRTVFSNGYSSPSMRPDVSSPPSSSSTATTGPPPKLCLVCSDEASGCHYGVLTCGSCKVFFKRAVEGQHNYLCAGKNDCIIDKIRRKNCPACRYRKCLQAGMNLEARKTKKKIKGIQQATTGVSQETSENPGNKTIVPATLPQLTPTLVSLLEVIEPEVLYAGYDSSVPDSTWRIMTTLNMLGGRQVIAAVKWAKAIPGFRNLHLDDQMTLLQYSWMFLMAFALGWRSYRQSSANLLCFAPDLIINEQRMTLPCMYDQCKHMLYVSSELHRLQVSYEEYLCMKTLLLLSSVPKDGLKSQELFDEIRMTYIKELGKAIVKREGNSSQNWQRFYQLTKLLDSMHEVVENLLNYCFQTFLDKTMSIEGPEMLAEIITNQIPKYSNGNIKKLLFHQK
Turning to B1, under “FIG. 5”, the “luciferase activity (transactivation potential), in words” value was “very low level”.

B2: allele 66-62: Full-length human GR with substitutions N72D, V321A, N766S (protein, UniProt P04150 1-777, looked up, variant N72D V321A N766S)
Glucocorticoid receptor: MDSKESLTPGREENPSSVLAQERGDVMDFYKTLRGGATVKVSASSPSLAVASQSDSKQRRLLVDFPKGSVSDAQQPDLSKAVSLSMGLYMGETETKVMGNDLGFPQQGQISLSSGETDLKLLEESIANLNRSTSVPENPKSSASTAVSAAPTEKEFPKTHSDVSSEQQHLKGQTGTNGGNVKLYTTDQSTFDILQDLEFSSGSPGKETNESPWRSDLLIDENCLLSPLAGEDDSFLLEGNSNEDCKPLILPDTKPKIKDNGDLVLSSPSNVTLPQVKTEKEDFIELCTPGVIKQEKLGTVYCQASFPGANIIGNKMSAISAHGVSTSGGQMYHYDMNTASLSQQQDQKPIFNVIPPIPVGSENWNRCQGSGDDNLTSLGTLNFPGRTVFSNGYSSPSMRPDVSSPPSSSSTATTGPPPKLCLVCSDEASGCHYGVLTCGSCKVFFKRAVEGQHNYLCAGRNDCIIDKIRRKNCPACRYRKCLQAGMNLEARKTKKKIKGIQQATTGVSQETSENPGNKTIVPATLPQLTPTLVSLLEVIEPEVLYAGYDSSVPDSTWRIMTTLNMLGGRQVIAAVKWAKAIPGFRNLHLDDQMTLLQYSWMFLMAFALGWRSYRQSSANLLCFAPDLIINEQRMTLPCMYDQCKHMLYVSSELHRLQVSYEEYLCMKTLLLLSSVPKDGLKSQELFDEIRMTYIKELGKAIVKREGNSSQNWQRFYQLTKLLDSMHEVVENLLNYCFQTFLDKTMSIEFPEMLAEIITNQIPKYSSGNIKKLLFHQK
For B2, the “fold change in luciferase activity relative to the luciferase activity induced by the reference human GR polypeptide” value (medium with 10% fetal bovine serum, FIG. 5, experiment repeated six times) was 5.5 fold.
